Data published in IntAct's records for PubMed 9012831.

B1: Tyrosine-protein kinase BTK (Homo sapiens), Q06187 (parent)
chain: MAAVILESIFLKRSQQKKKTSPLNFKKRLFLLTVHKLSYYEYDFERGRRGSKKGSIDVEKITCVETVVPEKNPPPERQIPRRGEESSEMEQISIIERFPYPFQVVYDEGPLYVFSPTEELRKRWIHQLKNVIRYNSDLVQKYHPCFWIDGQYLCCSQTAKNAMGCQILENRNGSLKPGSSHRKTKKPLPPTPEEDQILKKPLPPEPAAAPVSTSELKKVVALYDYMPMNANDLQLRKGDEYFILEESNLPWWRARDKNGQEGYIPSNYVTEAEDSIEMYEWYSKHMTRSQAEQLLKQEGKEGGFIVRDSSKAGKYTVSVFAKSTGDPQGVIRHYVVCSTPQSQYYLAEKHLFSTIPELINYHQHNSAGLISRLKYPVSQQNKNAPSTAGLGYGSWEIDPKDLTFLKELGTGQFGVVKYGKWRGQYDVAIKMIKEGSMSEDEFIEEAKVMMNLSHEKLVQLYGVCTKQRPIFIITEYMANGCLLNYLREMRHRFQTQQLLEMCKDVCEAMEYLESKQFLHRDLAARNCLVNDQGVVKVSDFGLSRYVLDDEYTSSVGSKFPVRWSPPEVLMYSKFSSKSDIWAFGVLMWEIYSLGKMPYERFTNSETAEHIAQGLRLYRPHLASEKVYTIMYSCWHEKADERPTFKILLSNILDVMDEES

Variants of: B1
Settings: with gtf2i_human GTF2I

Effect of a mutation on the interaction, decreasing interaction:
Y223F
R307K
Y551F
